Assay results reported in the supplement of paper PMC10724198.
± gives the standard deviation of the averaged measurements.

What was measured:
Saccharomyces cerevisiae [1] = assay: protein stability index of tFT-peptide fusion (C-terminal peptide) (PSI (0-1 scale)); higher = more stable (slower turnover)
Protocol: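 MPS profiling in S. cerevisiae of the tFT-X12 degron library: putative degron peptides plus stable controls, 12 aa, fused to the C-terminus of a sfGFP-mCherry timer. Cells are FACS-sorted into 8 mCherry/sfGFP bins and deep-sequenced. PSI runs from 0 (unstable) to 1 (stable). Backgrounds are wild type, das1Δ and doa10Δ at 30 °C, and wild type, das1Δ, cdc34-1 and cdc53-1 at 37 °C; 2-3 technical replicates each.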

Saccharomyces cerevisiae [2] = assay: as above; settings: genetic background: wild type; temperature: 30 C
[3] = genetic background: cdc34-1, temperature: 37 C
[4] = genetic background: cdc53-1, temperature: 37 C
[5] = genetic background: das1 deletion, temperature: 30 C
[6] = genetic background: das1 deletion, temperature: 37 C
[7] = genetic background: doa10 deletion, temperature: 30 C
[8] = genetic background: wild type, temperature: 30 C
[9] = genetic background: wild type, temperature: 37 C
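Note: PSI is a weighted mean of sequencing reads over stability bins, variants kept only with over 10 reads, mCherry proximal and sfGFP distal, peptide attached via GGGS linker.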

Row | Sequence | protein stability index (Saccharomyces cerevisiae [1]; [3]) | protein stability index (Saccharomyces cerevisiae [1]; [4]) | protein stability index (Saccharomyces cerevisiae [1]; [5]) | protein stability index (Saccharomyces cerevisiae [1]; [6]) | protein stability index (Saccharomyces cerevisiae [1]; [7]) | protein stability index (Saccharomyces cerevisiae [1]; [8]) | protein stability index (Saccharomyces cerevisiae [1]; [9]) | protein stability index (Saccharomyces cerevisiae [2])
1 | LPPSVLPLPPSH | 0.647 ± 0.053 | 0.72 ± 0.013 | 0.658 ± 0.015 | 0.73 ± 0.024 | 0.6756 ± 0.0016 | 0.679 ± 0.033 | 0.752 ± 0.053 | 0.729 ± 0.021
2 | LPPVPLRLTLVL | 0.448 ± 0.0077 | 0.474 ± 0.031 | 0.353 ± 0.026 | 0.503 ± 0.005 | 0.3197 ± 0.0027 | 0.359 ± 0.024 | 0.477 ± 0.0054 | 0.4414 ± 0.00093
3 | LPRDPLHAQIAS | 0.647 ± 0.019 | 0.696 ± 0.0026 | 0.645 ± 0.019 | 0.6959 ± 0.0017 | 0.223 ± 0.0072 | 0.257 ± 0.031 | 0.516 ± 0.036 | 0.384 ± 0.069
4 | LQFSLPCFLLIF | 0.145 ± 0.0042 | 0.134 ± 0.022 | 0.205 ± 0.019 | 0.253 ± 0.0062 | 0.211 ± 0.0099 | 0.159 ± 0.015 | 0.208 ± 0.019 | 0.221 ± 0.033
5 | LQLRKQILLLMT | 0.348 ± 0.022 | 0.36 ± 0.011 | 0.299 ± 0.022 | 0.432 ± 0.005 | 0.169 ± 0.019 | 0.195 ± 0.013 | 0.233 ± 0.034 | 0.299 ± 0.025
6 | LQSVLRGIDCCA | 0.347 ± 0.0089 | 0.375 ± 0.016 | 0.252 ± 0.053 | 0.467 ± 0.0052 | 0.214 ± 0.0044 | 0.266 ± 0.018 | 0.4341 ± 0.0029 | 0.411 ± 0.085
7 | LRCIFVVVSFTP | 0.0799 ± 0.045 | 0.2 ± 0.025 | 0.172 ± 0.035 | 0.305 ± 0.014 | 0.129 ± 0.0095 | 0.153 ± 0.035 | 0.25 ± 0.0035 | 0.291 ± 0.15
8 | LRCLAIFLYRAF | 0.576 ± 0.045 | 0.6238 ± 0.0039 | 0.49 ± 0.02 | 0.644 ± 0.015 | 0.399 ± 0.013 | 0.404 ± 0.02 | 0.563 ± 0.015 | 0.466 ± 0.013
9 | LRRQAFRYRTLL | 0.458 ± 0.037 | 0.552 ± 0.031 | 0.569 ± 0.021 | 0.566 ± 0.006 | 0.1668 ± 0.0014 | 0.19 ± 0.0052 | 0.2454 ± 0.00035 | 0.221 ± 0.0096
10 | LRTLVFIWFMYV | 0.296 ± 0.045 | 0.481 ± 0.058 | 0.273 ± 0.035 | 0.4851 ± 0.0041 | 0.126 ± 0.0092 | 0.143 ± 0.024 | 0.2612 ± 0.00061 | 0.19 ± 0.067
11 | LRTYSFTIGTLC | 0.616 ± 0.052 | 0.637 ± 0.027 | 0.471 ± 0.024 | 0.6402 ± 0.0061 | 0.241 ± 0.027 | 0.279 ± 0.035 | 0.492 ± 0.015 | 0.385 ± 0.012
12 | LSALMVLSFILV | 0.377 ± 0.016 | 0.4332 ± 0.0036 | 0.379 ± 0.024 | 0.4573 ± 0.00059 | 0.343 ± 0.011 | 0.355 ± 0.028 | 0.428 ± 0.0022 | 0.418 ± 0.033
13 | LSFRLSYPLPIY | 0.418 ± 0.017 | 0.47 ± 0.025 | 0.352 ± 0.034 | 0.5403 ± 0.0029 | 0.1 ± 0.013 | 0.108 ± 0.0014 | 0.132 ± 0.0069 | 0.178 ± 0.032
14 | LSIALPFPVLCR | 0.0213 ± 0.0045 | 0.038 ± 0.03 | 0.115 ± 0.019 | 0.091924 ± 4.9e-05 | 0.0844 ± 0.017 | 0.0877 ± 0.025 | 0.0459 ± 0.011 | 0.134 ± 0.012
15 | LSITQLFCLCAV | 0.317 ± 0.0048 | 0.337 ± 0.02 | 0.289 ± 0.031 | 0.4 ± 0.0069 | 0.2322 ± 0.0017 | 0.272 ± 0.016 | 0.356 ± 0.006 | 0.3742 ± 0.0031
16 | LSLSLQVVVFSM | 0.438 ± 0.034 | 0.497 ± 0.022 | 0.317 ± 0.024 | 0.484 ± 0.0062 | 0.3203 ± 0.00038 | 0.322 ± 0.021 | 0.457 ± 0.022 | 0.467 ± 0.022
17 | LSPYPLTFLFSQ | 0.693 ± 0.07 | 0.7506 ± 0.0056 | 0.648 ± 0.014 | 0.742 ± 0.0096 | 0.365 ± 0.014 | 0.393 ± 0.043 | 0.61752 ± 0.00015 | 0.51 ± 0.042
18 | LSWWCFLVLLHW | 0.172 ± 0.0081 | 0.14 ± 0.044 | 0.232 ± 0.026 | 0.323 ± 0.021 | 0.262 ± 0.017 | 0.202 ± 0.016 | 0.268 ± 0.012 | 0.302 ± 0.094
19 | LTPKRLTVCRLC | 0.553 ± 0.066 | 0.758 ± 0.012 | 0.688 ± 0.01 | 0.7862 ± 0.0057 | 0.306 ± 0.019 | 0.318 ± 0.008 | 0.628 ± 0.066 | 0.512 ± 0.079
20 | LVACLGYAVYCL | 0.529 ± 0.042 | 0.557 ± 0.03 | 0.402 ± 0.024 | 0.573 ± 0.0087 | 0.369 ± 0.015 | 0.394 ± 0.017 | 0.5568 ± 0.0018 | 0.46 ± 0.012
